Assay [1] deals with 441-residue human 2N4R tau (human, UniProt P10636-8 1-441). In words: NMR titration.
For a further assay, the target named is T1, FKBP51 (UniProt Q13451 1-457).
T1 sequence: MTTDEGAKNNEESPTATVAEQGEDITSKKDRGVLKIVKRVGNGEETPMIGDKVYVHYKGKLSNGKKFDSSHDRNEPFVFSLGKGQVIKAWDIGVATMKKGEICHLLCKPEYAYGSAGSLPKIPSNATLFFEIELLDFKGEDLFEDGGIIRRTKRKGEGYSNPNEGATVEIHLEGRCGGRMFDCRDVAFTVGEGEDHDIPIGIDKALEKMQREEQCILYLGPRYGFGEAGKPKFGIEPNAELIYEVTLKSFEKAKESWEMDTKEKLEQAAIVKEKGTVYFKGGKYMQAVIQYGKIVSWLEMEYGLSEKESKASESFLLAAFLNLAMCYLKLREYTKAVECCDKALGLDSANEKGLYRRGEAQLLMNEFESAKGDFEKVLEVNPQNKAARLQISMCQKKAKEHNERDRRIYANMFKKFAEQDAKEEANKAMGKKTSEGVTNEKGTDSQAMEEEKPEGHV
The experiment in a line: NMR titration.

B1: p23 (human, wild type) (natural protein)
chain: MQPASAKWYDRRDYVFIEFCVEDSKDVNVNFEKSKLTFSCLGGSDNFKHLNEIDLFHCIDPNDSKHKRTDRSILCCLRKGESGQSWPRLTKERAKLNWLSVDFNNWKDWEDDSDEDMSNFDRFSEMMNNMGGDEDVDLPEVDGADDDSQDSDDEKMPDLE
Regarding B1, in assay [1], the binding result was “binds”.

B2: truncated p23 (1-119) (domain or fragment)
chain: MQPASAKWYDRRDYVFIEFCVEDSKDVNVNFEKSKLTFSCLGGSDNFKHLNEIDLFHCIDPNDSKHKRTDRSILCCLRKGESGQSWPRLTKERAKLNWLSVDFNNWKDWEDDSDEDMSN
For B2, the binding result in the assay with FKBP51 was “binds”.

The values are drawn from paper doi:10.1101/2023.12.27.573415 (bioRxiv, 2023).
